The values that follow come from publication PMC10302166, “Molecular basis and dual ligand regulation of tetrameric estrogen receptor α/14-3-3ζ protein complex” (The Journal of Biological Chemistry, 2023).

The target in data set [1] is ERα(PKA) phosphopeptide (fluorescein-labeled C-terminal peptide mimic with F591R/P592R, pT594) (human (from the printed UniProt entry)). Briefly: fluorescence polarisation; as a13 in the presence of a 2-fold dilution series of 3′de-Ac FC-A (0.015–250 μM); cooperativity analysis of the ternary 14-3-3/peptide/FC-A complex. Background: Fluorescence polarisation rises when a labelled molecule tumbles more slowly, as on binding a larger partner.

Data set [2] has as its target T1, ERα(PKA)-strep phosphopeptide (fluorescein-labeled, pT594, with C-terminal strep-tag) (human (from the printed UniProt entry)). The description is as above.
In data set [3] the target is T1, ERα(PKA)-strep phosphopeptide (fluorescein-labeled, pT594, with C-terminal strep-tag) (human). Briefly: fluorescence polarisation; fluorescence anisotropy; 14-3-3ζ titrated (2-fold series from 300 μM) to 2 nM fluorescein-labeled ERα peptide; 20 mM HEPES pH 7.5, 150 mM NaCl, 10 mM MgCl2, 0.1% Tween20, 0.1% BSA; room temperature; apparent.
Data set [4] addresses fluorescein-labeled SRC-1 cofactor peptide (LXXLL motif of SRC-1/NCoA-1). Description: fluorescence polarisation; as a10 but in the presence of 100 μM E2; apparent KD.
The target is the same in data set [5]. Description: fluorescence polarisation; fluorescence anisotropy; ERα or complex titrated (2-fold series from 40 μM ERα) to 20 nM fluorescein-labeled SRC1 peptide; DMSO control; 20 mM HEPES pH 7.5, 150 mM NaCl, 10 mM MgCl2, 0.1% Tween20, 0.1% BSA; room temperature; apparent KD (4PL fit).
The target in data set [6] is T2, 14-3-3ζ-strep (human, UniProt P63104 1-245).
T2 chain: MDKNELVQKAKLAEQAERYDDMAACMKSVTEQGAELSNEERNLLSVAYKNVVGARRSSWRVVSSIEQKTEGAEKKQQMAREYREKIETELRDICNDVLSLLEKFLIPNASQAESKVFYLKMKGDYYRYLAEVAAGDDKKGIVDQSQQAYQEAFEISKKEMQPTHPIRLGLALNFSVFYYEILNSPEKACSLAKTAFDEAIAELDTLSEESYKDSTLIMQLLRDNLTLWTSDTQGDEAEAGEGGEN
Description: quantitative LC-QToF-MS of the purified complex; concentrations of 14-3-3ζ and ERα in dilutions of the purified complex read from calibration series of 14-3-3ζ-strep and ERα-pT594-strep.

Data set [7] concerns the target ERα LBD-F domain, PKA-responsive (F591R/P592R), phosphorylated at T594, as in the co-purified ERα/14-3-3ζ complex after SUMO cleavage (human (from the printed UniProt entry)) (UniProt P03372). Briefly: AUC; sedimentation velocity, 20 °C, 20 mM HEPES pH 7.5, 150 mM NaCl, 10 mM MgCl2, 0.5 mM TCEP; 10 μM single proteins, 10 or 30 μM complex; complex also with added 14-3-3ζ (up to six equivalents) or 20 μM E2 or 4-OHT; KD estimated from peak areas (KD = [A][B]/[AB]), dimer to dimer.

Data set [8] addresses T2, 14-3-3ζ-strep. The description is as above.
For data set [9], the target named is T2, 14-3-3ζ-strep. Briefly: FP.
For data set [10], the target named is T2, 14-3-3ζ-strep. Description: FP.
Data set [11] concerns the molecule itself. Briefly: SEC; analytical SEC, Superdex200 increase 3.2/300, 20 mM Tris pH 7.5, 150 mM NaCl, 10 mM MgCl2, 0.5 mM TCEP; 10 μM 14-3-3ζ, 10 μM ERα-strep, 20 μM complex; BSA as size reference. In general terms: In gel filtration, larger molecules generally elute earlier.
Data set [12] concerns the target T3, 14-3-3ζ-strep (human), P63104.
T3 chain: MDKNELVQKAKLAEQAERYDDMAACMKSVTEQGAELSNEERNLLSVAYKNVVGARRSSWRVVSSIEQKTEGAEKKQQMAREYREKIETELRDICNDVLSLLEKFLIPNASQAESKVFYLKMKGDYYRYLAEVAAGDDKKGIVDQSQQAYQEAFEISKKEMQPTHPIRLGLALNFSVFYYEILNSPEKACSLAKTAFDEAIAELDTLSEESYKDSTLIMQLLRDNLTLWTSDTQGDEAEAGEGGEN
The data set is described as above. Particulars: remark: other sources report otherwise.

For data set [13] the target is unchanged. Description: AUC; sedimentation velocity, 20 °C, 20 mM HEPES pH 7.5, 150 mM NaCl, 10 mM MgCl2, 0.5 mM TCEP; 10 μM single proteins, 10 or 30 μM complex; complex also with added 14-3-3ζ (up to six equivalents) or 20 μM E2 or 4-OHT; KD estimated from peak areas (KD = [A][B]/[AB]), dimer to dimer. Particulars: remark: other sources report otherwise.

A word on the stoichiometry N: it is the number of molecules, sites or subunits per partner or assembly.

Where no end group is shown, it is not given here. [ ]: non-standard residue; d: D form. pT = C[C@@H](OP(=O)(O)O)[C@H](N)C(=O)O

Regarding “14-3-3ζ-strep (from UniProt P63104 1-245) (natural protein)”, the values for the cooperativity factor (α) of FC-A stabilisation in data set [1] and in data set [2] were 366 and 15, respectively. Further, in data set [3], the fold reduction in binding affinity against the ERα peptide without strep-tag worked out at 50 fold.

For the molecule “ERα/14-3-3ζ protein complex (tetramer of an ERα homodimer and a 14-3-3ζ homodimer) (from UniProt P03372 302-595; P63104 1-245)”, the results for the Kd in data set [4] and in [5] were 0.6 µM and 9.6 µM, respectively.

For “ERα LBD-F domain, PKA-responsive (F591R/P592R), phosphorylated at T594, as in the co-purified ERα/14-3-3ζ complex after SUMO cleavage (from UniProt P03372 302-595) (domain or fragment)”, the stoichiometry N in the data set with 14-3-3ζ-strep [6] was 1 ERα:14-3-3ζ. Also, the stoichiometry N in data set [7] is 2. Further, in the data set with 14-3-3ζ-strep [8], the Kd was 0.032 µM and the stoichiometry N (ERα:14-3-3ζ (2:2)) is 1.

In the data set with 14-3-3ζ-strep [9], AEGRRA[pT]V (also: fluorescein label, position not given here) [ERα(PKA) phosphopeptide (fluorescein-labeled C-terminal peptide mimic with F591R/P592R, pT594)] had a Kd of 0.3 µM.

For the molecule AEGRRA[pT]VPWSHPQFEK (also: fluorescein label, position not given here) [ERα(PKA)-strep phosphopeptide (fluorescein-labeled, pT594, with C-terminal strep-tag)], the Kd in the data set with 14-3-3ζ-strep [10] was 14 µM.

B1: ERαLBD-F-strep (PKA-responsive, non-phosphorylated) (domain or fragment, human (from the printed UniProt entry), UniProt P03372 302-595, looked up)
chain: KKNALALSLTADQMVSALLDAEPPILYSEYDPTRPFSEASMMGLLTNLADRELVHMINWAKRVPGFVDLTLHDQVHLLECAWLEILMIGLVWRSMEHPGKLLFAPNLLLDRNQGKCVEGMVEIFDMLLATSSRFRMMNLQGEEFVCLKSIILLNSGVYTFLSSTLKSLEEKDHIHRVLDKITDTLIHLMAKAGLTLQQQHQRLAQLLLILSHIRHMSNKGMEHLYSMKCKNVVPLYDLLLEMLDAHRLHAPTSRGGASVEETDQSHLATAGSTSSHSLQKYYITGEAEGRRATV
notes: also called ERα-strep; ERα(PKA)-strep; source: E. coli NiCo21 (DE3), purified (Ni-NTA, SUMO cleavage, Strep-Tactin, SEC); not shown: His tag, N-terminal, cleaved; SUMO, N-terminal, cleaved; strep-tag, C-terminal, kept
For the molecule B1, the “stoichiometry N” value in [11] stood at 2.

B2: 14-3-3ζ-strep, P63104 1-245 (natural protein)
chain: MDKNELVQKAKLAEQAERYDDMAACMKSVTEQGAELSNEERNLLSVAYKNVVGARRSSWRVVSSIEQKTEGAEKKQQMAREYREKIETELRDICNDVLSLLEKFLIPNASQAESKVFYLKMKGDYYRYLAEVAAGDDKKGIVDQSQQAYQEAFEISKKEMQPTHPIRLGLALNFSVFYYEILNSPEKACSLAKTAFDEAIAELDTLSEESYKDSTLIMQLLRDNLTLWTSDTQGDEAEAGEGGEN
On to B2, for which the stoichiometry N in [12] and in [13] was 2 in each case.

As to AEGFPA[pT]V (also: fluorescein label, position not given here) [WT ERα phosphopeptide (fluorescein-labeled C-terminal peptide mimic, pT594)], in the data set with 14-3-3ζ-strep [9], the Kd amounted to 2.2 µM.
